Laboratory results from patent US20210330742.
Where a chain is given by its changes, count along the chain named. Numbers in names are those of the source.

B1: CDK4-WT (over-expressed) (protein)
chain: MATSRYEPVAEIGVGAYGTVYKARDPHSGHFVALKSVRVPNGGGGGGGLPISTVREVALLRRLEAFEHPNVVRLMDVCATSRTDREIKVTLVFEHVDQDLRTYLDKAPPPGLPAETIKDLMRQFLRGLDFLHANCIVHRDLKPENILVTSGGTVKLADFGLARIYSYQMALTPVVVTLWYRAPEVLLQSTYATPVDMWSVGCIFAEMFRRKPLFCGNSEADQLGKIFDLIGLPPEDDWPRDVSLPRGAFPPRGPRPVQSVVPEMEESGAQLLLEMLTFNPHKRISAFRALQHSYLHKDEGNPE
B2: Flag-CDK4-T172A (protein)
chain: B1 chain with T172A

Experiments:
[1] = biological target: RUNX3 (Runt-related transcription factor 3) protein, Q13761
Chain of RUNX3 (Runt-related transcription factor 3) protein, Q13761 (Q13761 whole entry): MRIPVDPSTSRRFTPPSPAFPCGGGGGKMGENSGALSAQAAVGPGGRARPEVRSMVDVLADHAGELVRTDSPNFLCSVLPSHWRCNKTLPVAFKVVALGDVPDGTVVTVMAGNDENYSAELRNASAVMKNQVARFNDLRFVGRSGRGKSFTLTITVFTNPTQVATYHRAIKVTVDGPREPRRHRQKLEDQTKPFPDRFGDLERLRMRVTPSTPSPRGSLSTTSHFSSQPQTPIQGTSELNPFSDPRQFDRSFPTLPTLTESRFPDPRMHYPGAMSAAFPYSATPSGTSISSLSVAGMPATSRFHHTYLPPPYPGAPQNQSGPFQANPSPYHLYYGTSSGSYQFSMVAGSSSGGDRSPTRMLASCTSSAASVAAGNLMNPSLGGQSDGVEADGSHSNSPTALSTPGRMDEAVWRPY

Chain of Myc-RUNX3, Q13761 (Q13761 whole entry): as above

| Protein | phosphorylation of RUNX3 at Ser-356 (immunoblot) (Myc-RUNX3, Q13761) | phosphorylation of RUNX3 at Ser-356 (immunoblot) [1] |
| --- | --- | --- |
| B1 | The over-expressed CDK4-WT phosphorylated Myc-RUNX3 2 to 4 hours after serum stimulation | – |
| B2 | – | did not phosphorylate the 356th serine of RUNX3 |
